Laboratory results: patent US20170015742A1 (published 2017)
Numbering of substitutions follows the chain as printed. Blank lines part the entries; values can stand above or below the binder they belong to.

Experiments:
[1] = target: T1, Human VEGF-A 165 (human, UniProt P15692 207-395); assay: SPR (Biacore), method of Example 1.1
T1 construct: also called hVEGF165
Experimental: (§1) Unreacted moieties on the biosensor surface were blocked with ethanolamine. For kinetic analysis, rate equations derived from the 1:1 Langmuir binding model were fitted simultaneously to multiple antigen injections (using global fit analysis) with the use of Scrubber 2 (BioLogic Software), Biacore Biaevaluation 4.0.1 software or Biacore T100 Evaluation software. Purified antibodies or DVD-Ig molecules were diluted in running buffer for capture across goat anti-human Fc reaction surfaces. Antibodies or DVD-Ig molecules to be captured as a ligand (1 μg/ml) were injected over reaction matrices at a flow rate of 10 μl/minute. During the assay, all measurements were referenced against the capture surface alone (i.e., with no captured antibody or DVD-Ig molecule). […] The equilibrium dissociation constant KD (M) of the reaction between antibodies and the target antigen was then calculated from the kinetic rate constants by the following formula: KD=Koff/Kₒₙ. Binding was recorded as a function of time and kinetic rate constants were calculated. In this assay, on-rates as fast as 10⁶M⁻¹s⁻¹ and off-rates as slow as 10⁻⁶ s⁻¹ could be measured.

[2] = target: T2, Human PDGF-BB (human, UniProt P01127 82-190); assay: SPR (Biacore), method of Example 1.1
T2 construct: also called hPDGF-BB
Experimental: as §1

T1 sequence (P15692 other isoform, or with tags, fused parts or gaps limits assumed): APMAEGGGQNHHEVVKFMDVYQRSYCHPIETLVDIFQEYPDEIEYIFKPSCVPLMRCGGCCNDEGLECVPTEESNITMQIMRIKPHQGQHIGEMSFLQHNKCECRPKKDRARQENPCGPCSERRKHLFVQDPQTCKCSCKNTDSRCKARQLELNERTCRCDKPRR
T2 sequence (P01127 82-190 limits assumed): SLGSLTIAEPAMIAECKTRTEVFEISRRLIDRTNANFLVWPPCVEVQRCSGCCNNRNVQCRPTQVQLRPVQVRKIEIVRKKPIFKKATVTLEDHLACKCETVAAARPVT

B1: CODV004 (bispecific antibody, human IgG1, kappa, L234A L235A)
heavy: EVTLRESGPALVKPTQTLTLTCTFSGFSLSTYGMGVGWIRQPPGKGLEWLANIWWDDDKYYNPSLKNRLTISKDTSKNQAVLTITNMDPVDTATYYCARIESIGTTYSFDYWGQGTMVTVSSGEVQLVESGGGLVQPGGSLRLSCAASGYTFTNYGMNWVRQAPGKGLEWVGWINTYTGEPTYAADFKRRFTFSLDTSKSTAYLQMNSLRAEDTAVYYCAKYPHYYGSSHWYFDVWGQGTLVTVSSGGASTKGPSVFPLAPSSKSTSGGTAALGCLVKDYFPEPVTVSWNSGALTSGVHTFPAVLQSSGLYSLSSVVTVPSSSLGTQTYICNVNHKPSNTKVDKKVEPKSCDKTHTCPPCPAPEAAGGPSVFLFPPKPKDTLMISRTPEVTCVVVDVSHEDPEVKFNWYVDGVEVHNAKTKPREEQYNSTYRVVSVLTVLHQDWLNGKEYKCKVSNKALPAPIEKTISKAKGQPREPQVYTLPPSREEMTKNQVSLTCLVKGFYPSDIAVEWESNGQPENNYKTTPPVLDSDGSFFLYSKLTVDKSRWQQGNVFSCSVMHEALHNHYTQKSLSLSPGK
light: DIQMTQSPSSLSASVGDRVTITCSASQDISNYLNWYQQKPGKAPKVLIYFTSSLHSGVPSRFSGSGSGTDFTLTISSLQPEDFATYYCQQYSTVPWTFGQGTKVEIKGGGSGGGDFQLTQSPSSLSASVGDRVTITCERSSGDIGDSYVSWYQQKPGKAPKNVIYADDQRPSGVPSRFSGSGSGNSASLTISSLQPEDFATYFCQSYDINIDIVFGQGTKVEIKGGGSGRTVAAPSVFIFPPSDEQLKSGTASVVCLLNNFYPREAKVQWKVDNALQSGNSQESVTEQDSKDSTYSLSSTLTLSKADYEKHKVYACEVTHQGLSSPVTKSFNRGEC
notes: Anti-human VEGF-A/anti-human PDGF-BB cross-over DVD-Ig (CO-DVD-Ig); also called PR-1565051
binding result [1]: no binding
Kd [2]: 0.087 nM
kon [2]: 1e+07 M⁻¹ s⁻¹

B2: CODV010 (bispecific antibody, human IgG1, kappa, L234A L235A)
heavy: EVTLRESGPALVKPTQTLTLTCTFSGFSLSTYGMGVGWIRQPPGKALEWLANIWWDDDKYYNPSLKNRLTISKDTSKNQVVLTMTNMDPVDTATYYCARIESIGTTYSFDYWGQGTMVTVSSGEVQLVQSGSELKKPGASVKVSCKASGYTFTNYGMYWVRQAPGQGLEWMGWINTETGKPTYADDFKGRFVFSLDTSVSTAYLQISSLKAEDTAVYYCARTNYYYRSYIFYFDYWGQGTMVTVSSGGASTKGPSVFPLAPSSKSTSGGTAALGCLVKDYFPEPVTVSWNSGALTSGVHTFPAVLQSSGLYSLSSVVTVPSSSLGTQTYICNVNHKPSNTKVDKKVEPKSCDKTHTCPPCPAPEAAGGPSVFLFPPKPKDTLMISRTPEVTCVVVDVSHEDPEVKFNWYVDGVEVHNAKTKPREEQYNSTYRVVSVLTVLHQDWLNGKEYKCKVSNKALPAPIEKTISKAKGQPREPQVYTLPPSREEMTKNQVSLTCLVKGFYPSDIAVEWESNGQPENNYKTTPPVLDSDGSFFLYSKLTVDKSRWQQGNVFSCSVMHEALHNAYTQKSLSLSPGK
light: DTVLTQSPATLSLSPGERATLSCRASESVSTHMHWYQQKPGQAPRLLIYGASNLESGVPARFSGSGSGTDFTLTISSLEPEDFAVYFCQQSWNDPFTFGQGTKLEIKGGGSGGGEFVLTQSPGTLSLSPGERATLSCERSSGDIGDSYVSWYQQKPGQAPRLVIYADDQRPSGIPDRFSGSGSGTDFTLTISRLEPEDFAVYYCQSYDINIDIVFGGGTKVEIKGGGSGRTVAAPSVFIFPPSDEQLKSGTASVVCLLNNFYPREAKVQWKVDNALQSGNSQESVTEQDSKDSTYSLSSTLTLSKADYEKHKVYACEVTHQGLSSPVTKSFNRGEC
notes: Anti-human VEGF-A/anti-human PDGF-BB cross-over DVD-Ig (CO-DVD-Ig); also called PR-1571823
Kd [1]: 6.6 nM
kon [1]: 57000 M⁻¹ s⁻¹
Kd [2]: 0.004 nM
kon [2]: 4.1e+07 M⁻¹ s⁻¹

B4: CODV005 (bispecific antibody, human IgG1, kappa, L234A L235A)
heavy: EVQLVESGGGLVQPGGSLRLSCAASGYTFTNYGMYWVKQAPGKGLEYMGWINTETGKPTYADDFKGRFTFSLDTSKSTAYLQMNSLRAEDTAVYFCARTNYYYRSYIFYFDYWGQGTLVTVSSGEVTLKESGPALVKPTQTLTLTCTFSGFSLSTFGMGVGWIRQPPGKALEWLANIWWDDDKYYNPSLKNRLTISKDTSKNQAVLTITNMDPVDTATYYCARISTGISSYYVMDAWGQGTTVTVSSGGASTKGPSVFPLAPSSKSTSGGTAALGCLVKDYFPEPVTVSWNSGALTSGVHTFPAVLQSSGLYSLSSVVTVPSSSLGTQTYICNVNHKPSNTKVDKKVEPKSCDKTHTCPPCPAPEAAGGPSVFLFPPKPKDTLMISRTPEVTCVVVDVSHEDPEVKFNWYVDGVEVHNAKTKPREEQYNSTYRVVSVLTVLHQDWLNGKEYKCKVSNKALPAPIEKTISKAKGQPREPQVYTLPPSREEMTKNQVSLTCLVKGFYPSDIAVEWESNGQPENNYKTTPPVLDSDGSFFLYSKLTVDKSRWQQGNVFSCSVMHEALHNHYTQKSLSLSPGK
light: DFQLTQSPSSLSASVGDRVTITCERSSGDIGDTYVSWYQQKPGKAPKNVIYGNDQRPSGVPSRFSGSGSGNSATLTISSLQPEDFATYFCQSYDSDIDIVFGQGTKVEIKGGGSGGGDTQLTQSPSSLSASVGDRVTISCRASESVSTHMHWYQQKPGKAPKLLIYGASNLESGVPSRFSGSGSGTDFTLTISSLQPEDFATYFCQQSWNDPFTFGQGTKVEIKGGGSGRTVAAPSVFIFPPSDEQLKSGTASVVCLLNNFYPREAKVQWKVDNALQSGNSQESVTEQDSKDSTYSLSSTLTLSKADYEKHKVYACEVTHQGLSSPVTKSFNRGEC
notes: Anti-human VEGF-A/anti-human PDGF-BB cross-over DVD-Ig (CO-DVD-Ig); also called PR-1565083
Kd [1]: 35 nM
Kd [2]: 0.011 nM
kon [2]: 1.2e+07 M⁻¹ s⁻¹

B5: CODV007 (bispecific antibody, human IgG1, kappa, L234A L235A)
heavy: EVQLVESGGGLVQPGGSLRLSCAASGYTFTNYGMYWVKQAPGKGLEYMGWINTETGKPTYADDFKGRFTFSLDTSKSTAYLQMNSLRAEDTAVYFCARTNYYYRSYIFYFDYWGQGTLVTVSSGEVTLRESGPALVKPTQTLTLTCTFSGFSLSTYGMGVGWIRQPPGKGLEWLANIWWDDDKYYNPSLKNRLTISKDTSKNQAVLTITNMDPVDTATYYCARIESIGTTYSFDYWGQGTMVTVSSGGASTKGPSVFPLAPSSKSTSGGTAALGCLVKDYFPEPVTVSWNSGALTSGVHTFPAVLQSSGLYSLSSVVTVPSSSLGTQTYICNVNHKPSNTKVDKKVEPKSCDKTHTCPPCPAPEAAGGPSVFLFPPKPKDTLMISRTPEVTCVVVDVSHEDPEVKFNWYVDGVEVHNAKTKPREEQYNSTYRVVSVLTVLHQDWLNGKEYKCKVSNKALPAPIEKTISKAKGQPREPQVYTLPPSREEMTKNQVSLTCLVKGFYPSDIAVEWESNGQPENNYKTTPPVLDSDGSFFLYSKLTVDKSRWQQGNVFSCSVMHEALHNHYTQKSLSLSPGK
light: B4 light with T33S, G52A, N53D, T74S, S95I, D96N
notes: Anti-human VEGF-A/anti-human PDGF-BB cross-over DVD-Ig (CO-DVD-Ig); also called PR-1565085
Kd [1]: 22 nM
Kd [2]: 0.0073 nM
kon [2]: 2.9e+07 M⁻¹ s⁻¹

B8: CODV009 (bispecific antibody, human IgG1, kappa, L234A L235A)
heavy: EVQLVQSGSELKKPGASVKVSCKASGYTFTNYGMYWVRQAPGQGLEWMGWINTETGKPTYADDFKGRFVFSLDTSVSTAYLQISSLKAEDTAVYYCARTNYYYRSYIFYFDYWGQGTMVTVSSGEVTLRESGPALVKPTQTLTLTCTFSGFSLSTYGMGVGWIRQPPGKALEWLANIWWDDDKYYNPSLKNRLTISKDTSKNQVVLTMTNMDPVDTATYYCARIESIGTTYSFDYWGQGTMVTVSSGGASTKGPSVFPLAPSSKSTSGGTAALGCLVKDYFPEPVTVSWNSGALTSGVHTFPAVLQSSGLYSLSSVVTVPSSSLGTQTYICNVNHKPSNTKVDKKVEPKSCDKTHTCPPCPAPEAAGGPSVFLFPPKPKDTLMISRTPEVTCVVVDVSHEDPEVKFNWYVDGVEVHNAKTKPREEQYNSTYRVVSVLTVLHQDWLNGKEYKCKVSNKALPAPIEKTISKAKGQPREPQVYTLPPSREEMTKNQVSLTCLVKGFYPSDIAVEWESNGQPENNYKTTPPVLDSDGSFFLYSKLTVDKSRWQQGNVFSCSVMHEALHNAYTQKSLSLSPGK
light: EFVLTQSPGTLSLSPGERATLSCERSSGDIGDSYVSWYQQKPGQAPRLVIYADDQRPSGIPDRFSGSGSGTDFTLTISRLEPEDFAVYYCQSYDINIDIVFGGGTKVEIKGGGSGGGDTVLTQSPATLSLSPGERATLSCRASESVSTHMHWYQQKPGQAPRLLIYGASNLESGVPARFSGSGSGTDFTLTISSLEPEDFAVYFCQQSWNDPFTFGQGTKLEIKGGGSGRTVAAPSVFIFPPSDEQLKSGTASVVCLLNNFYPREAKVQWKVDNALQSGNSQESVTEQDSKDSTYSLSSTLTLSKADYEKHKVYACEVTHQGLSSPVTKSFNRGEC
notes: Anti-human VEGF-A/anti-human PDGF-BB cross-over DVD-Ig (CO-DVD-Ig); also called PR-1571821
Kd [1]: 26 nM
Kd [2]: 0.0056 nM
kon [2]: 3.5e+07 M⁻¹ s⁻¹

B9: CODV011 (bispecific antibody, human IgG1, kappa, L234A L235A)
heavy: EVQLVQSGSELKKPGASVKVSCKASGYTFTNYGMYWVRQAPGQGLEWMGWINTETGKPTYADDFKGRFVFSLDTSVSTAYLQISSLKAEDTAVYYCARTNYYYRSYIFYFDYWGQGTMVTVSSGGGGSGGGGSEFVLTQSPGTLSLSPGERATLSCERSSGDIGDSYVSWYQQKPGQAPRLVIYADDQRPSGIPDRFSGSGSGTDFTLTISRLEPEDFAVYYCQSYDINIDIVFGGGTKVEIKGGGSGASTKGPSVFPLAPSSKSTSGGTAALGCLVKDYFPEPVTVSWNSGALTSGVHTFPAVLQSSGLYSLSSVVTVPSSSLGTQTYICNVNHKPSNTKVDKKVEPKSCDKTHTCPPCPAPEAAGGPSVFLFPPKPKDTLMISRTPEVTCVVVDVSHEDPEVKFNWYVDGVEVHNAKTKPREEQYNSTYRVVSVLTVLHQDWLNGKEYKCKVSNKALPAPIEKTISKAKGQPREPQVYTLPPSREEMTKNQVSLTCLVKGFYPSDIAVEWESNGQPENNYKTTPPVLDSDGSFFLYSKLTVDKSRWQQGNVFSCSVMHEALHNAYTQKSLSLSPGK
light: EVTLRESGPALVKPTQTLTLTCTFSGFSLSTYGMGVGWIRQPPGKALEWLANIWWDDDKYYNPSLKNRLTISKDTSKNQVVLTMTNMDPVDTATYYCARIESIGTTYSFDYWGQGTMVTVSSGGGGSGGGGSDTVLTQSPATLSLSPGERATLSCRASESVSTHMHWYQQKPGQAPRLLIYGASNLESGVPARFSGSGSGTDFTLTISSLEPEDFAVYFCQQSWNDPFTFGQGTKLEIKGGGSGRTVAAPSVFIFPPSDEQLKSGTASVVCLLNNFYPREAKVQWKVDNALQSGNSQESVTEQDSKDSTYSLSSTLTLSKADYEKHKVYACEVTHQGLSSPVTKSFNRGEC
notes: Anti-human VEGF-A/anti-human PDGF-BB cross-over DVD-Ig (CO-DVD-Ig); also called PR-1575521
Kd [1]: 0.038 nM
kon [1]: 1.1e+06 M⁻¹ s⁻¹
Kd [2]: 0.0018 nM
kon [2]: 3.8e+07 M⁻¹ s⁻¹

Further lines, results first:

binding result [1]: no binding
Kd [2]: 0.011 nM
kon [2]: 2.3e+07 M⁻¹ s⁻¹
B3: CODV003 (bispecific antibody, human IgG1, kappa, L234A L235A)
heavy: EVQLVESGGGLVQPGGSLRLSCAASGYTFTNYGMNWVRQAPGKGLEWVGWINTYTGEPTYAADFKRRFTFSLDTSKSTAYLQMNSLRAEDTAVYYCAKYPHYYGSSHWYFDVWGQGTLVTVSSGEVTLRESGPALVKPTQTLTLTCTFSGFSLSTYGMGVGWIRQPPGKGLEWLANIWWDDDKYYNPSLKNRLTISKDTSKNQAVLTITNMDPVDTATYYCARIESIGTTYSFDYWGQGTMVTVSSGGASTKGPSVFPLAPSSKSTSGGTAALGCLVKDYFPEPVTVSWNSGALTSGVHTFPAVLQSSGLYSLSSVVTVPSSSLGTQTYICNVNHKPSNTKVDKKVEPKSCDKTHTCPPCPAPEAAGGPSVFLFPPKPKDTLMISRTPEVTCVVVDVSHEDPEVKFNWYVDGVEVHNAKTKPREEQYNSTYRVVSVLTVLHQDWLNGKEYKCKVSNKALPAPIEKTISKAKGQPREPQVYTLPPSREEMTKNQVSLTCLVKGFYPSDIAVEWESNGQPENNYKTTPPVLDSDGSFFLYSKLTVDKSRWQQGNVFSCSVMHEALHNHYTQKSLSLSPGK
light: DFQLTQSPSSLSASVGDRVTITCERSSGDIGDSYVSWYQQKPGKAPKNVIYADDQRPSGVPSRFSGSGSGNSASLTISSLQPEDFATYFCQSYDINIDIVFGQGTKVEIKGGGSGGGDIQMTQSPSSLSASVGDRVTITCSASQDISNYLNWYQQKPGKAPKVLIYFTSSLHSGVPSRFSGSGSGTDFTLTISSLQPEDFATYYCQQYSTVPWTFGQGTKVEIKGGGSGRTVAAPSVFIFPPSDEQLKSGTASVVCLLNNFYPREAKVQWKVDNALQSGNSQESVTEQDSKDSTYSLSSTLTLSKADYEKHKVYACEVTHQGLSSPVTKSFNRGEC
notes: Anti-human VEGF-A/anti-human PDGF-BB cross-over DVD-Ig (CO-DVD-Ig); also called PR-1565044

binding result [1]: no binding
Kd [2]: 0.0097 nM
kon [2]: 2.2e+07 M⁻¹ s⁻¹
B6: CODV006 (bispecific antibody, human IgG1, kappa, L234A L235A)
heavy: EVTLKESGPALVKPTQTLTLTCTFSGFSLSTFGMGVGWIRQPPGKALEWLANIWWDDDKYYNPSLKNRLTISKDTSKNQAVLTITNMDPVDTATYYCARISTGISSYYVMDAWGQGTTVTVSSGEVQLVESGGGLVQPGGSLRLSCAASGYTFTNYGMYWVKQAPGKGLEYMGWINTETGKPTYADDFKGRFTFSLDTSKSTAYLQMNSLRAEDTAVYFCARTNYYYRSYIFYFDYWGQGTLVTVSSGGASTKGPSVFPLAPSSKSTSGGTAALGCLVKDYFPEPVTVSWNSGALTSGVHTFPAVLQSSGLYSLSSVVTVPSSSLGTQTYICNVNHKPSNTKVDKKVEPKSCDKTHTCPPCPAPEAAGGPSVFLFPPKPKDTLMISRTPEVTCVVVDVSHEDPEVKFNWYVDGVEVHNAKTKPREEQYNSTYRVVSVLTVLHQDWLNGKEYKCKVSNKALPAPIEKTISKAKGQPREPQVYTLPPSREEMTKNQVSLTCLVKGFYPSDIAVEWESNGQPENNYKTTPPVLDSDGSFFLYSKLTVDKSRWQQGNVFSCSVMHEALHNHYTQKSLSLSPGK
light: DTQLTQSPSSLSASVGDRVTISCRASESVSTHMHWYQQKPGKAPKLLIYGASNLESGVPSRFSGSGSGTDFTLTISSLQPEDFATYFCQQSWNDPFTFGQGTKVEIKGGGSGGGDFQLTQSPSSLSASVGDRVTITCERSSGDIGDTYVSWYQQKPGKAPKNVIYGNDQRPSGVPSRFSGSGSGNSATLTISSLQPEDFATYFCQSYDSDIDIVFGQGTKVEIKGGGSGRTVAAPSVFIFPPSDEQLKSGTASVVCLLNNFYPREAKVQWKVDNALQSGNSQESVTEQDSKDSTYSLSSTLTLSKADYEKHKVYACEVTHQGLSSPVTKSFNRGEC
notes: Anti-human VEGF-A/anti-human PDGF-BB cross-over DVD-Ig (CO-DVD-Ig); also called PR-1565084

binding result [1]: no binding
Kd [2]: 0.0074 nM
kon [2]: 1.7e+07 M⁻¹ s⁻¹
B7: CODV008 (bispecific antibody, human IgG1, kappa, L234A L235A)
heavy: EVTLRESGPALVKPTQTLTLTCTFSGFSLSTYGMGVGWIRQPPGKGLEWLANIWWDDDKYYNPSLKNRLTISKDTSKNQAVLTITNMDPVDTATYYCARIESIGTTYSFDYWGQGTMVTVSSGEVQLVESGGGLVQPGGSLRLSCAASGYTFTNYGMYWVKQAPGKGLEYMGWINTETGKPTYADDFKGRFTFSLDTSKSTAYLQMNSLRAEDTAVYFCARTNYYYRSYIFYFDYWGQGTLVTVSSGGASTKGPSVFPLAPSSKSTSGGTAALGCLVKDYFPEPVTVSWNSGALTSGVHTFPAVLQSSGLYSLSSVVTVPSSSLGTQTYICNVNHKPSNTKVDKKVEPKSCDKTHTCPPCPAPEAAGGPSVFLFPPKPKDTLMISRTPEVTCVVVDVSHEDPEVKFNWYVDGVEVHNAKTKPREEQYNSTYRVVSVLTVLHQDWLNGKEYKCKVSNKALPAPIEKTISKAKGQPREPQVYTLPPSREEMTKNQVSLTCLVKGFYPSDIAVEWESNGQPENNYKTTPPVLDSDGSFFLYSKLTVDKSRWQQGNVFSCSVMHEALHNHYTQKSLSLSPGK
light: B6 light with T147S, G166A, N167D, T188S, S209I, D210N
notes: Anti-human VEGF-A/anti-human PDGF-BB cross-over DVD-Ig (CO-DVD-Ig); also called PR-1565086
